This data set deals with the molecule itself. Kind of data set: SEC. A general note: Size exclusion chromatography separates by hydrodynamic size, large species first.

B1: Arabidopsis thaliana Golgi anti-apoptotic protein 3 (AtGAAP3) (natural protein, UniProt Q9ZQX7-1 1-248, looked up)
chain: MYQWNLPYRKDDVETGVSSRRPLLYPAMHENPELRWGFIRKVYSIIAFQLLATVAVAATVVTVRPIALFFATTGLGLALYIVIIITPLIVLCPLYYYHQKHPVNYLLLGIFTLALAFVVGLTCAFTNGKVILESVILTSVVVLSLTLYTFWAARKGYDFNFLGPFLFGALTVLIFFALIQILFPLGRVSVMIYGCLVSIIFCGYIVYDTDNLIKRHTYDEYIWAAVSLYLDIINLFLYLLTVLRALQR
As for B1, the binding result is “binds”.

(Values after article doi:10.1101/859678 (bioRxiv, 2019).)
